Experimental data reported in patent publication US10058586B2, “Use of human small leucine zipper protein in adipocyte differentiation procedure” (Korea University Research and Business Foundation, priority 2013, dated 2018).

Legend:
[1] = target: T1, PPARγ2 (Homo sapiens, UniProt P37231); experiment: Fluorescence microscopy, subcellular localization of sLZIP and PPARγ2 in C3H10T1/2 cells; format: cell-based; details: GFP-PPARγ2 and Flag-sLZIP
T1 sequence (P37231 1-505): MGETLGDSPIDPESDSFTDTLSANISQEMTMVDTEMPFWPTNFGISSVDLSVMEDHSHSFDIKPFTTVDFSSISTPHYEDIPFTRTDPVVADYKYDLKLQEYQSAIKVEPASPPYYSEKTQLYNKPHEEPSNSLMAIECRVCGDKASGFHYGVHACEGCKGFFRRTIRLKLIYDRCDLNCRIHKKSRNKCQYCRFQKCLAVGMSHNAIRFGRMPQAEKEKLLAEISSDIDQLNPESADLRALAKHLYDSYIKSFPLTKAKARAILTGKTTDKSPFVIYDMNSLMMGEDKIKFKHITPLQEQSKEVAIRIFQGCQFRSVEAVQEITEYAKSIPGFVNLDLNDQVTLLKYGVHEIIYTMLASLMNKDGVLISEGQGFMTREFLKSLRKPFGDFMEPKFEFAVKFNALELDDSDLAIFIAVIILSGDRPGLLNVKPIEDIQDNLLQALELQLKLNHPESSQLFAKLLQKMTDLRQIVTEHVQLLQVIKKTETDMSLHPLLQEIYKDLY
Method: C3H10T1/2 cells were transiently ci-transfected with Flag-sLZIP, GFP-PPARγ2 or GFP-sLZIP, and HDAC3 was grown on cover slip. After 24 hours, the cells were fixed with 4% paraformaldehyde for 10 minutes and permeabilized 0.2% Triton-X 100 for 5 minutes. The cells were incubated with 1% BSA for one hour, and then incubated with anti-Flag and anti-HDAC3 antibodies overnight at 4° C. The cells were washed with PBS, and then were incubated with Texas Red-labeled antibodies for 2 hours. A cover slide was washed with PBS, and mounted on and examined using a LSM 510 META confocal microscopy (Carl Zeiss, Jena, Germany).
In order to examine whether the transcriptional activity of PPARγ2 is regulated by interaction with sLZIP, interaction between sLZIP and PPARγ2 was examined. For this purpose, 293T cells were transfected with GST-sLZIP and Myc-PPARγ2. Cell lysates were obtained and GST pull-down analysis was performed using a glutathione 4B bead. A protein complex was analyzed in SDS-PAGE and then immunoblotted with specific antibodies (FIG. 2A). […] Proteins bound to the bead were analyzed in SDS-PAGE, and then immunoblotted with anti-PPARγ2 and anti-His antibodies (FIG. 2C). GFP-PPARγ2 and Flag-sLZIP constructs were expressed in C3H10T1/2 cells, and analyzed using mouse anti-Flag and Texas Red-labeled anti-mouse antibodies under a fluorescence microscope. […]

[2] = tested on: multipotential mesenchymal progenitor cells; experiment: Oil red O staining, differentiation of multipotential mesenchymal progenitor cells into adipocytes; format: cell-based; details: C3H10T1/2 and 3T3-L1 cells
[3] = tested on: primary preadipocytes and mouse embryonic fibroblasts (MEFs); experiment: Adipocyte differentiation of primary preadipocytes and MEFs isolated from sLZIP TG mice; format: cell-based; details: cells isolated from sLZIP TG mice vs wild type mice
Excerpt: In order to generate human sLZIP transgenic (TG) mice, sLZIP genes were cloned into a pCMV-flag expression vector. The sLZIP TG mice were generated by Macrogen, Inc (Seoul, Korea). Transgenic founders were mated with wild type C57BL/6 mice to produce F1 heterozygotes. F1-F4 generations were genetically screened for transgenes at an age of 2 weeks old. The following two primers were used to amplify genomic DNA in order to identify wild type and TG mice: [NT] and 5'-[NT]3.' Adipocyte differentiation is a well-regulated procedure. PPARγ2 is a major regulator of adipogenesis, is highly expressed during adipocyte differentiation, and regulates expression of genes involved in adipogenesis. An effect of sLZIP on adipogenesis in vivo was examined. For this purpose, in order to produce human sLZIP transgenic mice, sLZIP genes were cloned in a pCMV-flag expression vector. The sLZIP TG mice were produced in Macrogen, Inc (Seoul, Korea) (FIG. 8A). Preadipocytes were isolated from epididymal adipose tissues of sLZIP TG mice. […] A promoter activity was measured according to luciferase analysis (FIG. 8B). […] Total RNA was extracted from the cells, and an mRNA expression level of mouse LZIPs was measured using RT-PCR analysis. […] Total RNA was isolated from the cells, and an mRNA expression level of mouse LZIPs was measured using RT-PCR (FIG. 9C) and real-time PCR (FIG. 9D).

[4] = Solubility of sLZIP; format: physicochemical; details: saline or buffer solution

B1: sLZIP: human small leucine-zipper protein, isoform of LZIP, 354 amino acids, no transmembrane domain; GenBank FJ263669, SEQ ID NO: 1 (protein, listed as Homo sapiens)
chain: MELELDAGDQDLLAFLLEESGDLGTAPDEAVRAPLDWALPLSEVPSDWEVDDLLCSLLSPPASLNILSSSNPCLVHHDHTYSLPRETVSMDLESESCRKEGTQMTPQHMEELAEQEIARLVLTDEEKSLLEKEGLILPETLPLTKTEEQILKRVRRKIRNKRSAQESRRKKKVYVGGLESRVLKYTAQNMELQNKVQLLEEQNLSLLDQLRKLQAMVIEISNKTSSSSMYSSDTRGSLPAEHGVLSRQLRALPSEDPYQLELPALQSEVPKDSTHQWLDGSDCVLQAPGNTSCLLHYMPQAPSAEPPLEWPFPDLFSEPLCRGPILPLQANLTRKGGWLPTGSPSVILQDRYSG
[1]
  subcellular localization of sLZIP and PPARγ2: localized in the nucleus together with PPARγ2
[2]
  adipocyte differentiation (oil red O staining): inhibited adipocyte differentiation
[3]
  adipocyte differentiation: inhibited more than in wild type mice
[4]
  solubility: very soluble in a saline or a buffer solution
